This is an account of results in paper PMC12003327.

For experiment [1], the target named is recombinant human integrin alphaV beta3 (αvβ3) (human) (UniProt P06756).
The target is the same in experiment [2]. This is another data set of the same source.
The target is the same in experiment [3]. The source holds these as a separate data set.

With “recombinant trimeric SARS-CoV-2 Omicron BA.1 spike protein (from UniProt P0DTC2 14-1273) (natural protein)”, in experiment [1], the inhibition of FAK activation by Omicron BA.1 in HL-mECs pretreated with Heparinase III was 48%, the inhibition of FAK activation by Omicron BA.1 in HL-mECs pretreated with mAb anti-αvβ3 amounted to 54%, the inhibition of FAK activation by Omicron BA.1 in HL-mECs pretreated with sodium chlorate came out at 48% and the inhibition of pSrc activation by Omicron BA.1 in HL-mECs pretreated with Heparinase III is 66%. Also, in experiment [1], the inhibition of pSrc activation by Omicron BA.1 in HL-mECs pretreated with mAb anti-αvβ3 was 56% and the inhibition of pSrc activation by Omicron BA.1 in HL-mECs pretreated with sodium chlorate was 65%. Moreover, in experiment [2], the ERK phosphorylation in HL-mECs after infection with authentic Omicron BA.1 (western blot, against not infected cells) (fold increase) was determined as 3.5; the inhibition of Omicron BA.1-induced ERK activation in HL-mECs pretreated with Heparinase III was determined as 56%; the inhibition of Omicron BA.1-induced ERK activation in HL-mECs pretreated with mAb anti-αvβ3 stood at 44%; the inhibition of Omicron BA.1-induced ERK phosphorylation in HL-mECs pretreated with sodium chlorate turned out to be 53%. In experiment [3], the phosphorylation of FAK in HL-mECs 1 h after infection with authentic Omicron BA.1 (western blot, against not infected cells) (fold increase) is 2.3 and the phosphorylation of Src in HL-mECs 1 h after infection with authentic Omicron BA.1 (western blot, against not infected cells) (fold increase) stood at 1.8.
